# Assay results published in US11306331B2, “Processes for the production of hydroxycinnamic acids using polypeptides having tyrosine ammonia lyase activity” (CysBio ApS, priority 2014, dated 2022).
# How the values were obtained:
# [1] = target: T1, Rhodobacter sphaeroides RsTAL (Protein GI 126464011), His-tagged (N-terminal tag SEQ ID NO: 11) (Cereibacter sphaeroides, UniProt Q3IWB0); test: In vitro kinetics of purified His-tagged RsTAL (tyrosine/phenylalanine ammonia lyase activity, absorbance at 315/295 nm)
# T1 sequence (Q3IWB0 1-523): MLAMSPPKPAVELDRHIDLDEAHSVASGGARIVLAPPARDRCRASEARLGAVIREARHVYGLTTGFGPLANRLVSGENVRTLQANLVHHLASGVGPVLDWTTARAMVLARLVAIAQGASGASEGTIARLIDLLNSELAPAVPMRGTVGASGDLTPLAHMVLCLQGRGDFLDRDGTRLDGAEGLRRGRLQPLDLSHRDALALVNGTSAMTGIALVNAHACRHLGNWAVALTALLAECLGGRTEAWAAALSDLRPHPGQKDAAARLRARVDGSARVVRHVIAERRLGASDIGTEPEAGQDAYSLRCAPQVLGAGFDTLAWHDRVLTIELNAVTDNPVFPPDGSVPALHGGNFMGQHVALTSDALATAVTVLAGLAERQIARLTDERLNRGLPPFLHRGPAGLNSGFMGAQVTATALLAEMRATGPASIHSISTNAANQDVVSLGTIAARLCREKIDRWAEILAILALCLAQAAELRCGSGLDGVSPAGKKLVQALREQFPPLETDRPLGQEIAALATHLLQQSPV
# Description: Four of the enzymes were further purified by His-tag purification as follows.
# Strains expressing His-tagged versions of the enzymes were grown in LB media overnight at 37° C. and diluted into fresh LB media with 1 mM IPTG and growth was propagated overnight (approximately 18 h) at 30° C. Cells were harvested by centrifugation at 8000 rpm for 8 minutes, and disrupted by shearing into a buffer (50 mM Tris-HCl, 10 mM imidazole, 500 mM NaCl, 10% glycerol, pH 7.5). The homogenate was clarified by centrifugation at 10000 g for 10 min at 4° C., and the supernatant was loaded onto Ni2+-NTA resin column on an Äkta Pure system connected to a F9-C fraction collector (GE). Finally the fractions containing the purified polypeptide was dialyzed overnight against a buffer containing 50 mM Tris-HCl pH 7.5, 150 mM NaCl and 10% glycerol, flash-frozen in liquid nitrogen and stored at −80° C.
# Enzymatic assays were performed in 200 μL volumes in wells in a UV transparent 96-well plate, by following the increase in absorbance at 315 nm (pHCA) or 295 nm (CA). The reaction mixtures contained 2 μg of purified protein and were initiated by adding 1 mM tyrosine or 6 mM after equilibration to 30° C. The enzymatic activity was calculated as U/g, where U is defined as μmol substrate converted per minute.
# [2] = system: E. coli BL21(DE3)pLysS cells; test: Specific production of pHCA and CA by E. coli expressing TAL/PAL enzymes; assay type: cell-based, Escherichia coli; conditions: 24 h after supplementation, +/- standard deviation
# Description: Plasmids carrying the genes were transformed into electrocompetent E. coli BL21(DE3)pLysS cells (Life Technologies) and selected on LBplates containing 50 ug/mL streptomycin. The strains were grown in M9 minimal media containing glucose as a carbon source, and expression was induced by adding 1 mM IPTG at an optical density at 600 nm of 0.6. After three hours of growth at 30° C. the cultures were supplemented with 2 mM tyrosine, phenylalanine or histidine. After further 24 hours, samples were withdrawn for determination of the optical density at 600 nm and for the isolation of the supernatant.
# The concentration of pHCA and CA in the supernatant was quantified by high performance (HPLC) and compared to chemical standards. HPLC was done on a Thermo setup using a HS-F5 column and mobile phases: 5 mM ammonium formate pH 4.0 (A) and acetonitrile (B) at 1.5 mL min-1, using a gradient elution starting at 5% B. From 0.5 min after injection to 7 min, the fraction of B increased linearly from 5% to 60%, and between 9.5 min and 9.6 the fraction of B decreased back to 5%, and remaining there until 12m pHCA and CA were quantified by measuring absorbance at 333 nm and 277 nm, respectively. The production was tested without addition of precursors or the addition of either phenylalanine or tyrosine to the growth medium.
# The specific production was calculated as micromolar (μM) concentration per unit of optical density of the culture at 600 nm, and standard deviations were calculated based on triplicate experiments. HaXAL1, HaXAL2 and FjXAL are the most specific enzymes and those that reach the highest yields.
# [3] = system: E. coli BL21(DE3)pLysS cells; test: Titers of hydroxycinnamic acids in supernatants of E. coli cultures expressing TAL homologs; assay type: cell-based, Escherichia coli; conditions: 16 hours, 37° C., duplicate
# Description: E. coli strains described in Example 1 were used. M9 medium with 0.2% glucose and 0.5 mM IPTG also containing either tyrosine (204 μM), L-dopa (194 μM) or 3-O-methyldopa (262 μM) was transferred as 3-mL aliquots into a 24-well deep-well plate (Enzyscreen). Aliquots were taken for HPLC before the wells were inoculated with 200 μL of overnight cultures of the strains. The plates were placed at 37° C. with shaking for 16 hours. Samples of the supernatant were withdrawn after two rounds of centrifugation. The samples were subjected to HPLC along with chemical standards as described in Example 1. p-coumaric acid, caffeic acid and ferulic acid was measured by absorbance at 333 nm. Tyrosine, L-dopa and 3-O-methyldopa were measured by fluorescence (excitation at 274 nm, emission at 303 nm).
# There was no measurable product in the medium before inoculation.
Molecule,"Kcat ([1]; 30° C, 1.56 μM to 200 μM tyrosine or 193 μM to 25 mM phenylalanine)",TAL/PAL ([1]; ratio of Kcat/Km for Tyr over Phe),Specific production of CA ([2]; M9 + His (2 mM)),Specific production of pHCA ([2]; M9 + His (2 mM)),Specific production of CA ([2]; M9 + Phe (2 mM)),Specific production of pHCA ([2]; M9 + Phe (2 mM)),Specific production of CA ([2]; M9 + Tyr (2 mM)),Specific production of pHCA ([2]; M9 + Tyr (2 mM)),Titer of ferulic acid ([3]; M9 + 3-O-methyldopa (262 μM)),Titer of caffeic acid ([3]; M9 + L-dopa (194 μM)),Titer of p-coumaric acid ([3]; M9 + tyrosine (204 μM))
"N[C@@H](Cc1ccc(O)cc1)C(=O)O [Tyr, tyrosine]",0.173 s⁻¹,125,–,–,–,–,–,–,–,–,–
"Flavobacterium johnsoniae FjXAL tyrosine ammonia lyase (Protein GI 146298870), SEQ ID NO: 1, His-tagged (N-terminal tag SEQ ID NO: 11) (Flavobacterium … (protein) MNTINEYLSLEEFEAIIFGNQKVTISDVVVNRVNESFNFLKEFSGNKVIYGVNTGFGPMAQYRIKESDQIQLQYNLIRSHSSGTGKPLSPVCAKAAILARLNTLSLGNSGVHPSVINLMSELINKDITPLIFEHGGVGASGDLVQLSHLALVLIGEGEVFYKGERRPTPEVFEIEGLKPIQVEIREGLALINGTSVMTGIGVVNVYHAKKLLDWSLKSSCAINELVQAYDDHFSAELNQTKRHKGQQEIALKMRQNLSDSTLIRKREDHLYSGENTEEIFKEKVQEYYSLRCVPQILGPVLETINNVASILEDEFNSANDNPIIDVKNQHVYHGGNFHGDYISLEMDKLKIVITKLTMLAERQLNYLLNSKINELLPPFVNLGTLGFNFGMQGVQFTATSTTAESQMLSNPMYVHSIPNNNDNQDIVSMGTNSAVITSKVIENAFEVLAIEMITIVQAIDYLGQKDKISSVSKKWYDEIRNIIPTFKEDQVMYPFVQKVKDHLINN",–,–,0 ± 0 μM OD600-1,91 ± 20 μM OD600-1,0.5 ± 0.4 μM OD600-1,76 ± 29 μM OD600-1,0 ± 0 μM OD600-1,440 ± 100 μM OD600-1,1.1 ± 0.3 µM,5.7 ± 1.0 µM,215 ± 11.1 µM
